Measured values from article PMC11417369, “DNA sequence and chromatin differentiate sequence-specific transcription factor binding in the human malaria parasite Plasmodium falciparum”.

B1: CACACA_negctrl_site1823 (dsDNA)
DNA 1: TATTTCATCTTATTTTAGGAAAAACTAATATATAAG
DNA 2: CTTATATATTAGTTTTTCCTAAAATAAGATGAAATA
B2: CACACA_site4122 (dsDNA)
DNA 1: AAAACAAACACATTTACACACATAAATAAATCAATT
DNA 2: AATTGATTTATTTATGTGTGTAAATGTGTTTGTTTT
B3: CACACA_negctrl_site775 (dsDNA)
DNA 1: TTGTATCTTCATTTTATCAGAAAAAAAAAAAAAAAT
DNA 2: ATTTTTTTTTTTTTTTCTGATAAAATGAAGATACAA
B4: CACACA_site8658 (dsDNA)
DNA 1: AACGAAAGAAAAAAAGCACACACAGTTTTGAGCAAT
DNA 2: ATTGCTCAAAACTGTGTGTGCTTTTTTTCTTTCGTT
B5: CACACA_negctrl_site1701 (dsDNA)
DNA 1: TTTTTTCAATTTTTTTTAAATAAACCACAAAAAAAA
DNA 2: TTTTTTTTGTGGTTTATTTAAAAAAAATTGAAAAAA
B6: CACACA_site8515 (dsDNA)
DNA 1: ATAATATATATACAAACACACAATTGCGTCCACATT
DNA 2: AATGTGGACGCAATTGTGTGTTTGTATATATATTAT
B7: CACACA_negctrl_site159 (dsDNA)
DNA 1: TTTTTTTATTATTCTTATATAAAAATTTTTTTTAAT
DNA 2: ATTAAAAAAAATTTTTATATAAGAATAATAAAAAAA
B8: CACACA_negctrl_site624 (dsDNA)
DNA 1: TTATAATAAATATTCATATGTTCAAATATATATATA
DNA 2: TATATATATATTTGAACATATGAATATTTATTATAA
B9: CACACA_site1627 (dsDNA)
DNA 1: AAGAAAAAGATGCGCATACACACAGATGAATAACAA
DNA 2: TTGTTATTCATCTGTGTGTATGCGCATCTTTTTCTT
B10: CACACA_negctrl_site1629 (dsDNA)
DNA 1: TTTTTCTTTCTATTTATCAATATTAAAAAAAAAAAA
DNA 2: TTTTTTTTTTTTAATATTGATAAATAGAAAGAAAAA
B11: CACACA_site1293 (dsDNA)
DNA 1: CACACCCACAAAAACACACACAAAGGTGTTCTTATA
DNA 2: TATAAGAACACCTTTGTGTGTGTTTTTGTGGGTGTG
B12: CACACA_negctrl_site1706 (dsDNA)
DNA 1: TTACACATATTTTTAATTATTCTGAATTCAAAAAAA
DNA 2: TTTTTTTGAATTCAGAATAATTAAAAATATGTGTAA
B13: CACACA_site841 (dsDNA)
DNA 1: GGCATGACTATCTGCACACATAAAAATAAGAAATAC
DNA 2: GTATTTCTTATTTTTATGTGTGCAGATAGTCATGCC
B14: CACACA_negctrl_site442 (dsDNA)
DNA 1: TGGTTTCAATAATTAATAAAATATATTATTGTGAAA
DNA 2: TTTCACAATAATATATTTTATTAATTATTGAAACCA
B15: CACACA_negctrl_site861 (dsDNA)
DNA 1: TTTTAAAAATTAAAAAAATTAAATGTAAAAAAATGA
DNA 2: TCATTTTTTTACATTTAATTTTTTTAATTTTTAAAA
B16: CACACA_site2704 (dsDNA)
DNA 1: GCCATTGTACCATCCACACACATATATATATGTATA
DNA 2: TATACATATATATATGTGTGTGGATGGTACAATGGC
B17: CACACA_site9215 (dsDNA)
DNA 1: ATATATATATATATTCCACACACACCCAAAAAAAAA
DNA 2: TTTTTTTTTGGGTGTGTGTGGAATATATATATATAT
B18: CACACA_site8439 (dsDNA)
DNA 1: AGGTGAGCTCAGACTACACACACAAAGAAAAAAATA
DNA 2: TATTTTTTTCTTTGTGTGTGTAGTCTGAGCTCACCT
B19: CACACA_site2529 (dsDNA)
DNA 1: ACCTAAAATAACTACACACACATAAAAAAAAAAAAA
DNA 2: TTTTTTTTTTTTTATGTGTGTGTAGTTATTTTAGGT
B20: CACACA_negctrl_site170 (dsDNA)
DNA 1: TTTGTTAAAAATATATTATGAATAAAAATATATTTT
DNA 2: AAAATATATTTTTATTCATAATATATTTTTAACAAA
B21: CACACA_negctrl_site8 (dsDNA)
DNA 1: AAATTATATATAATAAATAATTTCTTTTTCTAAAAG
DNA 2: CTTTTAGAAAAAGAAATTATTTATTATATATAATTT
B22: CACACA_negctrl_site1281 (dsDNA)
DNA 1: TAAAATTAAATGAAATCATTATTCATTTTTATTTTA
DNA 2: TAAAATAAAAATGAATAATGATTTCATTTAATTTTA
B23: CACACA_negctrl_site941 (dsDNA)
DNA 1: ATATTACGCACAAAAAAAAAAAAAAAAAAAAAAAAA
DNA 2: TTTTTTTTTTTTTTTTTTTTTTTTTGTGCGTAATAT
B24: CACACA_negctrl_site1012 (dsDNA)
DNA 1: ATAATTTCTATTTCACAAAAAAAAAAAAAAAAAAAA
DNA 2: TTTTTTTTTTTTTTTTTTTTGTGAAATAGAAATTAT
B25: CACACA_negctrl_site884 (dsDNA)
DNA 1: TATTAATCTTTTTTTAAACAAAAAATTAAGCAAATT
DNA 2: AATTTGCTTAATTTTTTGTTTAAAAAAAGATTAATA
B26: CACACA_negctrl_site797 (dsDNA)
DNA 1: AAATGTATAATTTTTTAATACACTTATTTAAAATAA
DNA 2: TTATTTTAAATAAGTGTATTAAAAAATTATACATTT
B27: CACACA_negctrl_site344 (dsDNA)
DNA 1: TTTTGAATATGGATCTTATATATATTAAATAAATAA
DNA 2: TTATTTATTTAATATATATAAGATCCATATTCAAAA
B28: CACACA_site1334 (dsDNA)
DNA 1: ATTACATACACGCGCACACACAAAAAAAAAAAAAAA
DNA 2: TTTTTTTTTTTTTTTGTGTGTGCGCGTGTATGTAAT
B29: CACACA_site3522 (dsDNA)
DNA 1: ATATAAAATAGACACGCACACAAAAAAAAAAAAAAA
DNA 2: TTTTTTTTTTTTTTTGTGTGCGTGTCTATTTTATAT
B30: CACACA_negctrl_site1467 (dsDNA)
DNA 1: TTATATAATGACAAAAAAAAAAAAAAAAAAAAAAAA
DNA 2: TTTTTTTTTTTTTTTTTTTTTTTTGTCATTATATAA
B31: CACACA_negctrl_site333 (dsDNA)
DNA 1: GAATGAATGATAAATTTTTTTTTCTTTTTTTTTTTG
DNA 2: CAAAAAAAAAAAGAAAAAAAAATTTATCATTCATTC
B32: CACACA_site1127 (dsDNA)
DNA 1: TATTTTTCCATATGCACACACACCGTATATATAATA
DNA 2: TATTATATATACGGTGTGTGTGCATATGGAAAAATA
B33: CACACA_negctrl_site1598 (dsDNA)
DNA 1: TATTTTAACATGTTTTCAAAAATAAAACATATAAAT
DNA 2: ATTTATATGTTTTATTTTTGAAAACATGTTAAAATA
B34: CACACA_negctrl_site108 (dsDNA)
DNA 1: TTTTTAATTTAAAAAAATAATATTTTATATTCCGAA
DNA 2: TTCGGAATATAAAATATTATTTTTTTAAATTAAAAA
B35: CACACA_negctrl_site1118 (dsDNA)
DNA 1: ATTATCAAAAAAAAAAAAAAAAAAAAAAAAAAAAAA
DNA 2: TTTTTTTTTTTTTTTTTTTTTTTTTTTTTTGATAAT
B36: CACACA_negctrl_site65 (dsDNA)
DNA 1: ATTAAAAATTATATTTTATAAAAATTAAAAGAAATA
DNA 2: TATTTCTTTTAATTTTTATAAAATATAATTTTTAAT
B37: CACACA_negctrl_site1791 (dsDNA)
DNA 1: TTTTAAAAAAAAAAAATAAATAAATAAGATATTATC
DNA 2: GATAATATCTTATTTATTTATTTTTTTTTTTTAAAA
B38: CACACA_negctrl_site82 (dsDNA)
DNA 1: TTTTGTTTCTATATAAGATGGAAATATAAACTTGTA
DNA 2: TACAAGTTTATATTTCCATCTTATATAGAAACAAAA
B39: CACACA_negctrl_site1568 (dsDNA)
DNA 1: TTTTTTATAAATCAAATGAAAAATAAACTATTCAGA
DNA 2: TCTGAATAGTTTATTTTTCATTTGATTTATAAAAAA
B40: CACACA_negctrl_site736 (dsDNA)
DNA 1: TACTTATATTATTTTATTATTAAATTTAAAACGAAA
DNA 2: TTTCGTTTTAAATTTAATAATAAAATAATATAAGTA
B41: CACACA_site5877 (dsDNA)
DNA 1: TATAGCATATCTCACACACACATAATGAATATTATA
DNA 2: TATAATATTCATTATGTGTGTGTGAGATATGCTATA
B42: CACACA_negctrl_site169 (dsDNA)
DNA 1: TTATTTCTTCAGAAAAAATTAAAAAATTAAACAATA
DNA 2: TATTGTTTAATTTTTTAATTTTTTCTGAAGAAATAA
B43: CACACA_site1322 (dsDNA)
DNA 1: CACGAACACAAACACAAACACACATCATATATATAT
DNA 2: ATATATATATGATGTGTGTTTGTGTTTGTGTTCGTG
B44: CACACA_negctrl_site473 (dsDNA)
DNA 1: TATTTAATTATATAAAATTAAATTTTTAATTCTTCC
DNA 2: GGAAGAATTAAAAATTTAATTTTATATAATTAAATA

Target: T1, AP2-LT D1 (Plasmodium falciparum, UniProt Q8IAM1 2520-2577)
T1 sequence: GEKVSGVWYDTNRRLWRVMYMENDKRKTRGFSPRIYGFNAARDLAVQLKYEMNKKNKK
Experiment: gcPBM; about 25 ug protein; PBS, 1% milk, 0.2 mg/ml BSA, salmon testes DNA, 0.03% Triton X-100
Conditions: tags: N-terminal GST (pGEX-4T-1), kept; label: surface-attached array probe

Row | Binder | binding signal
1 | B1 | 8.32 ln median PBM intensity, better of two orientations
2 | B2 | 9.58 ln median PBM intensity, better of two orientations
3 | B3 | 8.43 ln median PBM intensity, better of two orientations
4 | B4 | 9.6 ln median PBM intensity, better of two orientations
5 | B5 | 8.15 ln median PBM intensity, better of two orientations
6 | B6 | 9.67 ln median PBM intensity, better of two orientations
7 | B7 | 8.48 ln median PBM intensity, better of two orientations
8 | B8 | 8.56 ln median PBM intensity, better of two orientations
9 | B9 | 9.7 ln median PBM intensity, better of two orientations
10 | B10 | 8.1 ln median PBM intensity, better of two orientations
11 | B11 | 9.62 ln median PBM intensity, better of two orientations
12 | B12 | 8.38 ln median PBM intensity, better of two orientations
13 | B13 | 9.74 ln median PBM intensity, better of two orientations
14 | B14 | 8.47 ln median PBM intensity, better of two orientations
15 | B15 | 8.44 ln median PBM intensity, better of two orientations
16 | B16 | 9.64 ln median PBM intensity, better of two orientations
17 | B17 | 9.85 ln median PBM intensity, better of two orientations
18 | B18 | 9.69 ln median PBM intensity, better of two orientations
19 | B19 | 9.65 ln median PBM intensity, better of two orientations
20 | B20 | 8.37 ln median PBM intensity, better of two orientations
21 | B21 | 8.42 ln median PBM intensity, better of two orientations
22 | B22 | 8.47 ln median PBM intensity, better of two orientations

Row | Binder | binding signal
23 | B23 | 8.56 ln median PBM intensity, better of two orientations
24 | B24 | 8.47 ln median PBM intensity, better of two orientations
25 | B25 | 8.28 ln median PBM intensity, better of two orientations
26 | B26 | 8.49 ln median PBM intensity, better of two orientations
27 | B27 | 8.27 ln median PBM intensity, better of two orientations
28 | B28 | 9.87 ln median PBM intensity, better of two orientations
29 | B29 | 9.59 ln median PBM intensity, better of two orientations
30 | B30 | 8.49 ln median PBM intensity, better of two orientations
31 | B31 | 8.4 ln median PBM intensity, better of two orientations
32 | B32 | 9.79 ln median PBM intensity, better of two orientations
33 | B33 | 8.55 ln median PBM intensity, better of two orientations
34 | B34 | 8.25 ln median PBM intensity, better of two orientations
35 | B35 | 8.29 ln median PBM intensity, better of two orientations
36 | B36 | 8.5 ln median PBM intensity, better of two orientations
37 | B37 | 8.55 ln median PBM intensity, better of two orientations
38 | B38 | 8.52 ln median PBM intensity, better of two orientations
39 | B39 | 8.3 ln median PBM intensity, better of two orientations
40 | B40 | 8.39 ln median PBM intensity, better of two orientations
41 | B41 | 9.72 ln median PBM intensity, better of two orientations
42 | B42 | 8.53 ln median PBM intensity, better of two orientations
43 | B43 | 9.81 ln median PBM intensity, better of two orientations
44 | B44 | 8.5 ln median PBM intensity, better of two orientations
